# US20260151519A1 (AKTIS ONCOLOGY, published 2026)
# Bridges are numbered along the chain shown (N, C = ends). Primed or numbered codes have the meaning given here. Where no end group is shown, it is not given here. The star is where a group is joined. Biotin = O=C1N[C@H]2[C@H](CS[C@H]2CCCCC(=O)*)N1; PEG4″ = 4(ethylene glycol)
# T1: Human Nectin-4 (human, UniProt Q96NY8 32-349, limits assumed)
# T1 construct: Protein immobilised on the SPR chip; also called target protein
# T1 sequence: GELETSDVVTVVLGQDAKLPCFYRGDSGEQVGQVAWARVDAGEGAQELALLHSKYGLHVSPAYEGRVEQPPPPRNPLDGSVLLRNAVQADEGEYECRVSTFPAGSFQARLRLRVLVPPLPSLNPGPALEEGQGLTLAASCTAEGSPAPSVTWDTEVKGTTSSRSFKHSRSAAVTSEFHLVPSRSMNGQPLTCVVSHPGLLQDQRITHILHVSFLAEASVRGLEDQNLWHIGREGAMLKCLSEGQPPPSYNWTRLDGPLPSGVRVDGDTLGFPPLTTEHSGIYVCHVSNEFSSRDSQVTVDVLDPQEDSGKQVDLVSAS
# Biological target: T1, Human Nectin-4
# Assay: Table 2B (DELFIA or SPR)
row,Binder,Kd
1,"{Biotin-PEG4″}-CEYDEEFFTALKRLRGGDICEYIQASFQYLPGLCIEEILDNLGCS-OH (designed binder, disulfide 1-34, 20-44) [C178]",1.4 nM
2,"{Biotin-PEG4″}-CEYDGEFFTALARLRGGDICQYIQAKFQYLPGLCIEEILDNLGCS-OH (designed binder, disulfide 1-34, 20-44) [C158]",1.1 nM
3,"{Biotin-PEG4″}-CEYDEEFFTALARLRGGDICQYIQAKFQYLPALCIEEILDNLGCS (designed binder, disulfide 1-34, 20-44) [C153]",0.56 nM
4,"{Biotin-PEG4″}-CEYDEEFFTALKRLRGGDICYYIQASFQYLPGLCIEEILDNLGCS (designed binder, disulfide 1-34, 20-44) [C111]",4.32 nM
5,"{Biotin-PEG4″}-CEYDEEFFTALKRLRGGDICYYIQASFQYLPGECIEEILDNLGCS-OH (designed binder, disulfide 1-34, 20-44) [C177]",2 nM
6,"Ac-CEYDEEFFTALKRLRGGDICYYIQKAFQYLPGLCIEEILDNLGCS (designed binder, disulfide 1-34, 20-44) [C120]",2.11 nM
7,"{Biotin-PEG4″}-CEYDEEFFTALKRLRGGDICYYIQKAFQYLPGLCIEEILDNLGCS (designed binder, disulfide 1-34, 20-44) [C123]",1.43 nM
8,"{Biotin-PEG4″}-CEYDEEFFTALARLRGSDICLYIQAKFQYLPGLCIEEILDNLGCS-OH (designed binder, disulfide 1-34, 20-44) [C156]",1.1 nM
9,"{Biotin-PEG4″}-CEYDEEFFTALARLRGGDICYYIQAKFQYLPGECIEEILQNLGCS-OH (designed binder, disulfide 1-34, 20-44) [C142]",0.81 nM
10,"{Biotin-PEG4″}-CEYDEEFFTALKRLRGDDICSYIQASFQYLPGLCIEEILDNLGCS-OH (designed binder, disulfide 1-34, 20-44) [C182]",3 nM
11,"{Biotin-PEG4″}-CEYDEEFFTALARLRGGDICYYIQAYFQYLPGLCIEEILDNLGCS-OH (designed binder, disulfide 1-34, 20-44) [C174]",4.1 nM
12,"{Biotin-PEG4″}-CEYDEEFFTALARLRGGDICQYIQAKFAYVPGLCIEEILDNLGCS-OH (designed binder, disulfide 1-34, 20-44) [C155]",1.1 nM
13,"{Biotin-PEG4″}-CEYDEEFFTALAQLRGGDICYYIQAKFQYLPGLCIEEILDNLGCS-OH (designed binder, disulfide 1-34, 20-44) [C162]",8.8 nM
14,"{Biotin-PEG4″}-CDYDEEFFTALARLRGGDICEYIQAKFQYLPGLCIEEILDNLGCS (designed binder, disulfide 1-34, 20-44) [C141]",0.64 nM
15,"{Biotin-PEG4″}-CEYDEEFFTALARLRGGDICYYIQAKFQYLPKLCIEEILDNLGCS-OH (designed binder, disulfide 1-34, 20-44) [C166]",0.75 nM
16,"{Biotin-PEG4″}-CEYDEQFFTALARLRGGDICYYILAKFQYLPQLCIEEILDNLGCS (designed binder, disulfide 1-34, 20-44) [C152]",0.85 nM
17,"{Biotin-PEG4″}-CEYDEEFFTALARLRGGDICYYILAKFQYLPGECIEEILDNLGCS (designed binder, disulfide 1-34, 20-44) [C145]",1.3 nM
18,"{Biotin-PEG4″}-CEYDGEFFTALARLRGADICEYIQAKFQYYPGLCIEEILDNLGCS-OH (designed binder, disulfide 1-34, 20-44) [C144]",3.7 nM
19,"{Biotin-PEG4″}-CEYDEAFFTALARLRGGDICQYIQAKFQYLPGLCIEEILDNLGCS-OH (designed binder, disulfide 1-34, 20-44) [C151]",0.68 nM
20,"{Biotin-PEG4″}-CEYDEEFFTALARLRGGDICEYIQAKFQYLPKLCIEEILDNLGCS-OH (designed binder, disulfide 1-34, 20-44) [C167]",1.2 nM
21,"{Biotin-PEG4″}-CEYDEQFFTALKALRGGDICYYIQASFNYLPDLCIEEILDNLGCS (designed binder, disulfide 1-34, 20-44) [C115]",6.46 nM

row,Binder,Kd
1,"{Biotin-PEG4″}-CEYDEEFFTALARLRGGDICEYIQAKFQYLPGLCIQEILDNLGCS (designed binder, disulfide 1-34, 20-44) [C148]",0.82 nM
2,"{Biotin-PEG4″}-CEYDEEFFTALKRLRGGDICYYIQAKFQYLPKLCIEEILDNLGCS (designed binder, disulfide 1-34, 20-44) [C119]",0.95 nM
3,"{Biotin-PEG4″}-CEYDEEFFTALKRLRGDDICEYIQASFQYLPGLCIEEILDNLGCS-OH (designed binder, disulfide 1-34, 20-44) [C181]",3 nM
4,"{Biotin-PEG4″}-CEYDEEFFTALARLRGGDICDYIQAKFQYLPKLCIEEILDNLGCS (designed binder, disulfide 1-34, 20-44) [C169]",0.74 nM
5,"{Biotin-PEG4″}-CEYDEEFFTALARLRGGDICYYIQAKFAYLPALCIEEILDNLGCS (designed binder, disulfide 1-34, 20-44) [C154]",0.94 nM
6,"{Biotin-PEG4″}-CEYDEEFFTALSRLRGGDICYYIQQAFQYLPGLCIEEILDNLGCS (designed binder, disulfide 1-34, 20-44) [C135]",5.42 nM
7,"{Biotin-PEG4″}-CEYDEQFFTALARLRGGDICEYIQAKFQYLPGLCIEEILDNLGCS (designed binder, disulfide 1-34, 20-44) [C146]",0.54 nM
8,"{Biotin-PEG4″}-CEYDEEFFTALKRLRGGDICSYIQASFQYLPGLCIEEILDNLGCS-OH (designed binder, disulfide 1-34, 20-44) [C179]",1.8 nM
9,"Ac-CEYDEEFFTALARLRGGDICYYIQAKFQYLPGLCIEEILDNLGCS (designed binder, disulfide 1-34, 20-44) [C124]",1.1 nM
10,"{Biotin-PEG4″}-CEYDEEFFTALARLRGGDICYYIQAKFQYLPGLCIEEILDNLGCS (designed binder, disulfide 1-34, 20-44) [C127]",1.27 nM
11,"{Biotin-PEG4″}-CEYDEEFFTALARLRGGDICYYIQAYFQYLPGLCIEEILDNLGCS-OH (designed binder, disulfide 1-34, 20-44) [C165]",4.1 nM
12,"Ac-CEYDEEFFTALKRLRGGDICYYIQAKFQYLPKLCIEEILDNLGCS (designed binder, disulfide 1-34, 20-44) [C116]",0.78 nM
13,"{Biotin-PEG4″}-CEYDEEFFTALKRLRGDDICYYIQASFQYLPGLCIEEILDNLGCS-OH (designed binder, disulfide 1-34, 20-44) [C180]",2.7 nM
14,"{Biotin-PEG4″}-CEYDEEFFTALASLRGGDICYYIQAKFQYLPGLCIEEILDNLGCS-OH (designed binder, disulfide 1-34, 20-44) [C161]",7.5 nM
15,"{Biotin-PEG4″}-CEYDEEFFTALARLRGGDICEYIQAKFQYLEGLCIEEILDNLGCS-OH (designed binder, disulfide 1-34, 20-44) [C150]",1 nM
16,"{Biotin-PEG4″}-CEYDEEFFTALARLRGGDICDYIQAKFQYLPGLCIAEILDNLGCS-OH (designed binder, disulfide 1-34, 20-44) [C157]",1.1 nM
17,"{Biotin-PEG4″}-CEYDEEFFTALARLRGADICDYIQAKFQYLPGLCIEEILDNLGCS (designed binder, disulfide 1-34, 20-44) [C147]",0.69 nM
18,"{Biotin-PEG4″}-CEYDEEFFTALARLRGGDICSYIQAKFQYLPKLCIEEILDNLGCS (designed binder, disulfide 1-34, 20-44) [C168]",0.9 nM
19,"{Biotin-PEG4″}-CEYDEEFFTALARLRGADICYYIQAKFQYLPGDCIEEILDNLGCS (designed binder, disulfide 1-34, 20-44) [C140]",1.1 nM
20,"Ac-CEYDEEFFTALKRLRGGDICYYIQASFQYLPGLCIEEILDNLGCS (designed binder, disulfide 1-34, 20-44) [C108]",5.78 nM
